Experiments:
HLA-B*15:17 [1] = experiment: IEDB peptide-MHC binding, purified MHC/competitive/fluorescence; filed as Kd, often an IC50 or EC50 that approximates it; ≥ and ≤ were set here for values at or beyond the usual limits of such assays
HLA-B*51:01 = experiment: as above
HLA-B*39:01 = experiment: as above
HLA-A*26:01 [2] = experiment: as above
HLA-A*69:01 [3] = experiment: as above
HLA-B*57:01 [4] = experiment: as above
HLA-B*46:01 [5] = experiment: as above
HLA-B*18:01 [6] = experiment: as above
HLA-B*27:03 = experiment: as above
HLA-A*02:01 [7] = experiment: as above
HLA-A*02:19 = experiment: IEDB peptide-MHC binding, purified MHC/direct/fluorescence; filed as Kd, often an IC50 or EC50 that approximates it; ≥ and ≤ were set here for values at or beyond the usual limits of such assays
HLA-A*02:03 = experiment: as above
HLA-B*15:01 [8] = experiment: as above
HLA-A*03:01 = experiment: as above
HLA-A*02:16 = experiment: as above
HLA-A*02:11 = experiment: as above
HLA-A*68:02 = experiment: as above
HLA-A*23:01 = experiment: as above
HLA-A*24:03 = experiment: as above
HLA-A*02:12 = experiment: as above
HLA-B*07:02 = experiment: as above
HLA-B*15:17 [9] = experiment: as above; conditions: source organism: Influenza A virus (A/Wisconsin/4755/1994(H1N1))
HLA-B*40:01 = experiment: as above; conditions: source organism: Influenza A virus (A/Wisconsin/4755/1994(H1N1))
HLA-A*31:01 = experiment: as above; conditions: source organism: Influenza A virus (A/Wisconsin/4755/1994(H1N1))
HLA-B*48:01 = experiment: as above; conditions: source organism: Influenza A virus (A/Wisconsin/4755/1994(H1N1))
HLA-A*26:01 [10] = experiment: as above; conditions: source organism: Influenza A virus H3N2
HLA-A*69:01 [11] = experiment: as above; conditions: source organism: Influenza A virus (A/Wisconsin/4755/1994(H1N1))
HLA-A*26:02 = experiment: as above; conditions: source organism: Influenza A virus H3N2
HLA-B*08:01 = experiment: as above; conditions: source organism: Influenza A virus (A/seal/Mass/1/1980(H7N7))
HLA-B*27:05 = experiment: as above; conditions: source organism: Influenza A virus (A/Wisconsin/4755/1994(H1N1))
HLA-B*57:01 [12] = experiment: as above; conditions: source organism: Influenza A virus (A/Wisconsin/4755/1994(H1N1))
HLA-A*11:01 = experiment: as above; conditions: source organism: Influenza A virus (A/Wisconsin/4755/1994(H1N1))
HLA-B*46:01 [13] = experiment: as above; conditions: source organism: Influenza A virus (A/Wisconsin/4755/1994(H1N1))
HLA-B*58:01 = experiment: as above; conditions: source organism: Influenza A virus (A/Wisconsin/4755/1994(H1N1))
HLA-A*01:01 = experiment: as above; conditions: source organism: Influenza A virus (A/Wisconsin/4755/1994(H1N1))
HLA-B*18:01 [14] = experiment: as above; conditions: source organism: Influenza A virus (A/Wisconsin/4755/1994(H1N1))
HLA-A*02:01 [15] = experiment: as above; conditions: source organism: Influenza A virus (A/Wisconsin/4755/1994(H1N1))
HLA-B*15:01 [16] = experiment: IEDB peptide-MHC binding, purified MHC/competitive/fluorescence; filed as Kd, often an IC50 or EC50 that approximates it; ≥ and ≤ were set here for values at or beyond the usual limits of such assays
HLA-A*29:02 = experiment: IEDB peptide-MHC binding, purified MHC/direct/fluorescence; filed as Kd, often an IC50 or EC50 that approximates it; ≥ and ≤ were set here for values at or beyond the usual limits of such assays
[17] = source organism: Zaire ebolavirus
[18] = source organism: Ravn virus - Ravn, Kenya, 1987
[19] = source organism: Sudan ebolavirus - Maleo (1979)
[20] = source organism: Influenza A virus (A/Wisconsin/4755/1994(H1N1))
[21] = source organism: Reston ebolavirus

## PQVLGGLSF
HLA-B*15:17 [1]; [17]
  Kd: ≥ 20 µM
HLA-B*51:01; [17]
  Kd: ≥ 20 µM
HLA-B*39:01; [17]
  Kd: ≥ 20 µM
HLA-A*26:01 [2]; [17]
  Kd: ≥ 20 µM
HLA-A*69:01 [3]; [17]
  Kd: ≥ 20 µM
HLA-B*57:01 [4]; [17]
  Kd: ≥ 20 µM
HLA-B*46:01 [5]; [17]
  Kd: ≥ 20 µM
HLA-B*18:01 [6]; [17]
  Kd: ≥ 20 µM
HLA-B*27:03; [17]
  Kd: ≥ 20 µM
HLA-A*02:01 [7]; [17]
  Kd: ≥ 20 µM
HLA-A*02:19; [18]
  Kd: ≥ 20 µM
HLA-A*02:03; [18]
  Kd: ≥ 20 µM
HLA-B*15:01 [8]; [19]
  Kd: 0.475 µM
HLA-A*03:01; [18]
  Kd: ≥ 20 µM
HLA-A*02:16; [18]
  Kd: ≥ 20 µM
HLA-A*02:11; [18]
  Kd: ≥ 20 µM
HLA-A*68:02; [18]
  Kd: ≥ 20 µM
HLA-A*23:01; [18]
  Kd: ≥ 20 µM
HLA-A*24:03; [18]
  Kd: ≥ 20 µM
HLA-A*02:12; [18]
  Kd: ≥ 20 µM

## DPKKTGGPI
HLA-B*07:02; source organism: Influenza A virus (A/seal/Mass/1/1980(H7N7))
  Kd: 0.0849 µM
HLA-B*15:17 [9]
  Kd: ≥ 20 µM
HLA-B*40:01
  Kd: ≥ 20 µM
HLA-B*15:01 [8]; [20]
  Kd: ≥ 20 µM
HLA-A*31:01
  Kd: ≥ 20 µM
HLA-B*48:01
  Kd: ≥ 20 µM
HLA-A*26:01 [10]
  Kd: ≥ 20 µM
HLA-A*69:01 [11]
  Kd: ≥ 20 µM
HLA-A*26:02
  Kd: ≥ 20 µM
HLA-B*08:01
  Kd: ≥ 20 µM
HLA-A*03:01; [20]
  Kd: ≥ 20 µM
HLA-B*27:05
  Kd: ≥ 20 µM
HLA-B*57:01 [12]
  Kd: ≥ 20 µM
HLA-A*11:01
  Kd: ≥ 20 µM
HLA-B*46:01 [13]
  Kd: ≥ 20 µM
HLA-B*58:01
  Kd: ≥ 20 µM
HLA-A*68:02; [20]
  Kd: ≥ 20 µM
HLA-A*01:01
  Kd: ≥ 20 µM
HLA-B*18:01 [14]
  Kd: ≥ 20 µM
HLA-A*02:01 [15]
  Kd: ≥ 20 µM

## TPSHYSGNI
HLA-B*15:17 [1]; [17]
  Kd: ≥ 20 µM
HLA-B*51:01; [17]
  Kd: ≥ 20 µM
HLA-B*39:01; [17]
  Kd: ≥ 20 µM
HLA-B*15:01 [16]; [17]
  Kd: ≥ 20 µM
HLA-A*26:01 [2]; [17]
  Kd: ≥ 20 µM
HLA-A*69:01 [3]; [17]
  Kd: ≥ 20 µM
HLA-B*57:01 [4]; [17]
  Kd: ≥ 20 µM
HLA-B*46:01 [5]; [17]
  Kd: ≥ 20 µM
HLA-B*18:01 [6]; [17]
  Kd: ≥ 20 µM
HLA-B*27:03; [17]
  Kd: ≥ 20 µM
HLA-A*02:01 [7]; [17]
  Kd: ≥ 20 µM
HLA-B*07:02; [19]
  Kd: 0.442 µM
HLA-A*02:19; [17]
  Kd: ≥ 20 µM
HLA-A*02:03; [17]
  Kd: ≥ 20 µM
HLA-A*03:01; [17]
  Kd: ≥ 20 µM
HLA-A*02:16; [17]
  Kd: ≥ 20 µM
HLA-A*29:02; [17]
  Kd: ≥ 20 µM
HLA-A*02:11; [17]
  Kd: ≥ 20 µM
HLA-A*68:02; [17]
  Kd: ≥ 20 µM
HLA-A*23:01; [17]
  Kd: ≥ 20 µM
HLA-A*24:03; [17]
  Kd: ≥ 20 µM
HLA-A*02:12; [17]
  Kd: ≥ 20 µM

## LPRERFRKT
HLA-B*15:17 [1]; [21]
  Kd: ≥ 20 µM
HLA-B*51:01; [21]
  Kd: ≥ 20 µM
HLA-B*39:01; [21]
  Kd: ≥ 20 µM
HLA-B*15:01 [16]; [21]
  Kd: ≥ 20 µM
HLA-A*26:01 [2]; [21]
  Kd: ≥ 20 µM
HLA-A*69:01 [3]; [21]
  Kd: ≥ 20 µM
HLA-B*57:01 [4]; [21]
  Kd: ≥ 20 µM
HLA-B*46:01 [5]; [21]
  Kd: ≥ 20 µM
HLA-B*18:01 [6]; [21]
  Kd: ≥ 20 µM
HLA-B*27:03; [21]
  Kd: ≥ 20 µM
HLA-A*02:01 [7]; [21]
  Kd: ≥ 20 µM
HLA-B*07:02; source organism: Tai Forest virus - Cote d'Ivoire, Cote d'Ivoire, 1994
  Kd: 0.179 µM
HLA-A*02:19; [21]
  Kd: ≥ 20 µM
HLA-A*02:03; [21]
  Kd: ≥ 20 µM
HLA-A*03:01; [21]
  Kd: ≥ 20 µM
HLA-A*02:16; [21]
  Kd: ≥ 20 µM
HLA-A*29:02; [21]
  Kd: ≥ 20 µM
HLA-A*02:11; [21]
  Kd: ≥ 20 µM
HLA-A*68:02; [21]
  Kd: ≥ 20 µM
HLA-A*23:01; [21]
  Kd: ≥ 20 µM
HLA-A*24:03; [21]
  Kd: ≥ 20 µM
HLA-A*02:12; [21]
  Kd: ≥ 20 µM

Reference: the Immune Epitope Database (IEDB)
